T1: recombinant chimpanzee PSMA extracellular domain (ECD) protein (Pan troglodytes, UniProt Q04609 44-750 (human entry))
T1 construct: also called Chimp PSMA ECD; PSMG8
T1 chain: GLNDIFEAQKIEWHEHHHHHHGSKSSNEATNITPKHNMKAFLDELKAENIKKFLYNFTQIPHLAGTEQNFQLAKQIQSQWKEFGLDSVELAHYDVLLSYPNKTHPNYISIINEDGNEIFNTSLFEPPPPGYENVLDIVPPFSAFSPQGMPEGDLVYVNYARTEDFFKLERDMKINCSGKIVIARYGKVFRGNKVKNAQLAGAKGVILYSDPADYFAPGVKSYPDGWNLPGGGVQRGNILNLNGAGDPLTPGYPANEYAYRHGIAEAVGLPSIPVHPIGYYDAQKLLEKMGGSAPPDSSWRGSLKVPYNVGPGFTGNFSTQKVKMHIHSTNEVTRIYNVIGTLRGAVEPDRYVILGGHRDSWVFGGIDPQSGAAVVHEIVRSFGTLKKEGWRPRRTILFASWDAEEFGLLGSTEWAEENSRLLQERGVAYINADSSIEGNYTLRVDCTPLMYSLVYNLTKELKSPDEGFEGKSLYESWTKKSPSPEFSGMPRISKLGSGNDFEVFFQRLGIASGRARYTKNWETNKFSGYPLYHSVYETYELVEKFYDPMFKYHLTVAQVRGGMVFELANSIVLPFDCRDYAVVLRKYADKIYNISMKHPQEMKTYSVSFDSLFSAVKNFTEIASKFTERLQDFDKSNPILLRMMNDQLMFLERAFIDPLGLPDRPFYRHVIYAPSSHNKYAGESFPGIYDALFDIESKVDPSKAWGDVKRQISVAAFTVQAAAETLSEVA

B1: PS3B27 (bispecific antibody, human IgG4 S228P, kappa, lambda, F234A L235A)
heavy 1: not shown
light 1: not shown
heavy 2: EVQLVESGGGLVQPGGSLRLSCAASGFTFNTYAMNWVRQAPGKGLEWVARIRSKYNNYATYYAASVKGRFTISRDDSKNSLYLQMNSLKTEDTAVYYCARHGNFGNSYVSWFAYWGQGTLVTVSSASTKGPSVFPLAPCSRSTSESTAALGCLVKDYFPEPVTVSWNSGALTSGVHTFPAVLQSSGLYSLSSVVTVPSSSLGTKTYTCNVDHKPSNTKVDKRVESKYGPPCPPCPAPEAAGGPSVFLFPPKPKDTLMISRTPEVTCVVVDVSQEDPEVQFNWYVDGVEVHNAKTKPREEQFNSTYRVVSVLTVLHQDWLNGKEYKCKVSNKGLPSSIEKTISKAKGQPREPQVYTLPPSQEEMTKNQVSLTCLVKGFYPSDIAVEWESNGQPENNYKTTPPVLDSDGSFLLYSKLTVDKSRWQEGNVFSCSVMHEALHNHYTQKSLSLSLGK
light 2: QTVVTQEPSLTVSPGGTVTLTCRSSTGAVTTSNYANWVQQKPGQAPRGLIGGTNKRAPGTPARFSGSLLGGKAALTLSGVQPEDEAEYYCALWYSNLWVFGGGTKLTVLGQPKAAPSVTLFPPSSEELQANKATLVCLISDFYPGAVTVAWKADSSPVKAGVETTTPSKQSNNKYAASSYLSLTPEQWKSHRSYSCQVTHEGSTVEKTVAPTECS
notes: IgG4 PAA; PSMA arm chains first, then CD3 arm (F405L, R409K); also called PSMB127 x CD3B219; PS2B27
B2: PS3B23 (bispecific antibody, human IgG4 S228P, kappa, lambda, F234A L235A)
heavy 1: not shown
light 1: not shown
heavy 2: B1 heavy 2
light 2: B1 light 2
notes: IgG4 PAA; PSMA arm chains first, then CD3 arm (F405L, R409K); also called PSMB123 x CD3B219
B3: PS3B25 (bispecific antibody, human IgG4 S228P, kappa, lambda, F234A L235A)
heavy 1: not shown
light 1: not shown
heavy 2: B1 heavy 2
light 2: B1 light 2
notes: IgG4 PAA; also called PSMB87 x CD3B219
B4: PS3B22 (bispecific antibody, human IgG4 S228P, kappa, lambda, F234A L235A)
heavy 1: not shown
light 1: DIQMTQSPSSLSASVGDRVTITCRASQSIDRWLNWYQQKPGKAPKLLIYAASSLQSGVPSRFSGSGSGTDFTLTISSLQPEDFATYYCQQSPRYPLTFGQGTKVEIKRTVAAPSVFIFPPSDEQLKSGTASVVCLLNNFYPREAKVQWKVDNALQSGNSQESVTEQDSKDSTYSLSSTLTLSKADYEKHKVYACEVTHQGLSSPVTKSFNRGEC
heavy 2: B1 heavy 2
light 2: B1 light 2
notes: IgG4 PAA; PSMA arm chains first, then CD3 arm (F405L, R409K); also called PSMB122 x CD3B219; PSB22
B5: PS3B30 (bispecific antibody, human IgG4 S228P, kappa, lambda, F234A L235A)
heavy 1: not shown
light 1: not shown
heavy 2: B1 heavy 2
light 2: B1 light 2
notes: IgG4 PAA; PSMA arm chains first, then CD3 arm (F405L, R409K); also called PSMB130 x CD3B219
B6: PS3B19 (bispecific antibody, human IgG4 S228P, kappa, lambda, F234A L235A)
heavy 1: not shown
light 1: not shown
heavy 2: B1 heavy 2
light 2: B1 light 2
notes: IgG4 PAA; PSMA arm chains first, then CD3 arm (F405L, R409K); also called PSMB119 x CD3B219
B7: PS3B20 (bispecific antibody, human IgG4 S228P, kappa, lambda, F234A L235A)
heavy 1: not shown
light 1: not shown
heavy 2: B1 heavy 2
light 2: B1 light 2
notes: IgG4 PAA; PSMA arm chains first, then CD3 arm (F405L, R409K); also called PSMB120 x CD3B219
B8: PS3B24 (bispecific antibody, human IgG4 S228P, kappa, lambda, F234A L235A)
heavy 1: not shown
light 1: not shown
heavy 2: B1 heavy 2
light 2: B1 light 2
notes: IgG4 PAA; PSMA arm chains first, then CD3 arm (F405L, R409K); also called PSMB124 x CD3B219
B9: PS3B28 (bispecific antibody, human IgG4 S228P, kappa, lambda, F234A L235A)
heavy 1: not shown
light 1: not shown
heavy 2: B1 heavy 2
light 2: B1 light 2
notes: IgG4 PAA; PSMA arm chains first, then CD3 arm (F405L, R409K); also called PSMB128 x CD3B219

Assays:
[1] = target: T2, human PSMA (prostate specific membrane antigen), full length (human, UniProt Q04609 1-750); experiment: FACS, whole cell binding, LNCaP
T2 construct: On LNCaP or C4-2B cells (endogenous) or transduced HEK293F cells; also called FOLH1_HUMAN; hPSMA
Protocol: PSMA×CD3 bispecific antibodies were tested for binding to PSMA positive cell lines LNCAP, human PSMA-HEK, Chimpanzee-PSMA-HEK and Cynomolgous monkey PSMA-HEK. To assess the binding capabilities of the PSMA bispecific antibodies, the cell-binding assay was utilized (described previously). Briefly, PSMA expressing tumor cells are bound by bispecific antibodies at known concentrations and the bound antibody is detected by an anti-human kappa light chain PE conjugated detection reagent (Invitrogen). The Mean Fluorescents Intensity (MFI) is the measure of bound bispecific antibody. The MFI is converted to a relative EC₅₀. EC₅₀ is a commonly used dose-response curve, where the half maximal effective concentration or the EC₅₀ point is defined as the inflection point of the curve. EC₅₀ s were determined by measuring cell bound bispecific and known concentrations. […] The dose response curves were then diluted down to that of background or no bispecific binding. The inflection point of this curve reflects the EC₅₀ point. The calculated EC₅₀ is determined by taking the ug/ml amount of bispecific antibody at the EC₅₀ point and converting it to a molarity value based on the MW of the bispecific antibody. Bispecific antibodies were normalized for protein concentration and then incubated with the same number of cells expressing either human or cyno PSMA. The MFI at each concentration was collected by flow cytometry and plotted as a function of concentration. Data was transformed via log 10 and then plotted. Nonlinear regression of binding curves was done to determine EC₅₀ s. These relative values were used for ranking PSMA binding to target cells.

[2] = target: T1, recombinant chimpanzee PSMA …; experiment: SPR Biacore 3000, bsAb captured by anti-Fc
Protocol: Binding to recombinant Chimp PSMA by Biacore. The Affinity measurements using Surface Plasmon Resonance (SPR) were performed using a Biacore 3000 optical biosensor (Biacore-GE Healthcare). A biosensor surface was prepared by coupling anti-Human IgG Fc (Jackson ImmunoResearch Laboratory, cat #109-005-098) to the carboxymethylated dextran surface of a CM-5 chip (Biacore, cat # BR-1000-12) using the manufacturer instructions for amine-coupling chemistry. Approximately 16,000 RU (response units) of anti-Human IgG Fc antibodies were immobilized in each of four flow cells. The kinetic experiments were performed at 25° C. in running buffer (DPBS+0.03% P20+[…]). Dilutions of antigen (recombinant Chimp PSMA, concentration either from 1.2-300 nM or 3.7-900 nM in a 3-fold serial dilution) were prepared in running buffer. About 100 RU of PSMA×CD3 bispecific mAbs were captured on flow cell 2 to 4 of the sensor chip. Flow cell 1 was used as reference surface. Capture of PSMA×CD3 bispecific mAb was followed by a 3 or 5-minute injection (association phase) of antigen (recombinant Chimp PSMA) at 50 μl/min, followed by 15 or 20 minutes of buffer flow (dissociation phase). The chip surface was regenerated by two 18-second injections of 100 mM Phosphoric acid (H₃PO₄, Sigma, cat #7961) at 50 μl/min.
The collected data were processed using BIAevaluation software (Biacore). First, double reference subtraction of the data was performed by subtracting the curves generated by buffer injection from the reference-subtracted curves for analyte injections. Then kinetic analysis of the data was performed using a Langmuir 1:1 binding model with global fit. The result for each PSMA×CD3 bispecific mAb was reported in the format of kₐ (On-rate), kd (Off-rate) and KD (Equilibrium dissociation constant).

T2 sequence (Q04609 whole entry): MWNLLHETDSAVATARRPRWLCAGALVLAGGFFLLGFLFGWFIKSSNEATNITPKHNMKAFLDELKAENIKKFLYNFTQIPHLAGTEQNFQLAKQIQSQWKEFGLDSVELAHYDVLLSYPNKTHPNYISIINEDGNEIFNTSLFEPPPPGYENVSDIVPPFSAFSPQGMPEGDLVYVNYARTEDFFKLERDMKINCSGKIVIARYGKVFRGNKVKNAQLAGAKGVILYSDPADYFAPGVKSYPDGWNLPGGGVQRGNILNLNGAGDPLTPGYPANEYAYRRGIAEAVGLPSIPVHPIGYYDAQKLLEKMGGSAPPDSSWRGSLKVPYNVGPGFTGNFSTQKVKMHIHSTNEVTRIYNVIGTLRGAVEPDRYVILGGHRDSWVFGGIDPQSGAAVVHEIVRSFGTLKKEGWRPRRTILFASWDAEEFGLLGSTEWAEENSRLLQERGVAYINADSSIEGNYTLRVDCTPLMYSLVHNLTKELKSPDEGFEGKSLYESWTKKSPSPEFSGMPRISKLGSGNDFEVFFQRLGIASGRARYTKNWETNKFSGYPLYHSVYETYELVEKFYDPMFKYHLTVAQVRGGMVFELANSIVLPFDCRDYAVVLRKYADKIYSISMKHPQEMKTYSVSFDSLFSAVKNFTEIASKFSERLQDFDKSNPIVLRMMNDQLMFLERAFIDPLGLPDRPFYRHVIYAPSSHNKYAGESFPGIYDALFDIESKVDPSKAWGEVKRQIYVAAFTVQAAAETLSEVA

| Binder | EC50 [1] | Kd [2] | koff [2] | kon [2] | binding result [1] |
| --- | --- | --- | --- | --- | --- |
| B1 | 2.07 µg/mL | 22.4 nM | 0.002 s⁻¹ | 89000 M⁻¹ s⁻¹ |  |
| B2 |  | 9.1 nM | 0.00122 s⁻¹ | 134000 M⁻¹ s⁻¹ |  |
| B3 |  | 16.4 nM | 0.00108 s⁻¹ | 65900 M⁻¹ s⁻¹ |  |
| B4 | 2.6 µg/mL | 60.4 nM | 0.001 s⁻¹ | 16600 M⁻¹ s⁻¹ |  |
| B5 | 1.2 µg/mL | 52.3 nM | 0.00182 s⁻¹ | 34800 M⁻¹ s⁻¹ |  |
| B6 |  | 66.3 nM | 0.000414 s⁻¹ | 6240 M⁻¹ s⁻¹ | binds |
| B7 | 123 µg/mL | 59.1 nM | 0.000461 s⁻¹ | 7820 M⁻¹ s⁻¹ |  |
| B8 |  | 38.6 nM | 0.000907 s⁻¹ | 23500 M⁻¹ s⁻¹ | binds |
| B9 | 1.16 µg/mL | 30.8 nM | 0.00191 s⁻¹ | 62000 M⁻¹ s⁻¹ |  |

Reference: patent US20200024360A1 (Janssen / Centocor, published 2020)
